By stoichiometry N is commonly meant a count of units in the complex or per binding partner.

What all share (assay): native MS; nano-ESI native MS, 15 μM monomer, buffer-exchanged into 100 mM ammonium acetate pH 8.5, positive ion mode
Test [1] addresses CrRbcX-IIa(33–189) (Chlamydomonas reinhardtii).
In test [2] the target is CrRbcX-IIa(34–156) (Chlamydomonas reinhardtii).
Test [3] concerns the target CrRbcX-IIa(34–189) (Chlamydomonas reinhardtii).

CrRbcX-IIa(33–189) (natural protein) returned a stoichiometry N in test [1] of 2. In the case of CrRbcX-IIa(34–156) (domain or fragment), the stoichiometry N in test [2] was 4. In test [3], CrRbcX-IIa(34–189) (domain or fragment) yielded a stoichiometry N of 4.

The values are drawn from publication PMC4549274.
